According to patent publication US8846363B2, “Compositions of and methods of using sulfatases from Flavobacterium heparinum” (priority 2007, dated 2014):

Legend:
[1] = ESI mass spectrometry of desulfation of non-derivatized sulfated glucosamine monosaccharides; type: biochemical
Procedure: Electrospray ionization mass spectrometry was performed in the negative ion mode using an Agilent 1100 Series VL LC/MSD Trap. For simplicity, the samples were prepared by adding MeOH directly to the enzymatic reaction mixtures without purification and were directly injected into the source of the mass spectrometer using a syringe pump at a rate of ˜8 μl/min, The SPS function of the software (LC/MSD Trap Software 4.1 Build 143, MSD Trap Control Version 5.0 Build 65) was used to tune the instrument with the target mass set to the mass of the substrate, the sample stability set to 50% and the drive level set to 100%. Data were acquired over the scan range of 100-2200 m/z by accumulating 30,000 ions per scan. Capillary voltage was set to 3000 V. Nitrogen was used as the drying gas while helium was used as the nebulizing gas, with flow rates of 5 and 15 liters/min, respectively. In each case a minimum of ten spectra were averaged.
For the experiments determining the order of action of the enzymes, reactions were carried out with 100 μM substrate, 2 mM CaCl2, 5 μM enzyme and various buffers at 37° C. overnight. Samples were diluted 1:10 in MeOH prior to analysis in the ESI, and the carrier solvent was H2O:MeOH (1:10, v/v). For the time course experiments showing desulfation of different unlabeled monosaccharides, reactions were carried out with 2.5 mM substrate, 5 mM CaCl2, 1 μM enzyme and 50 mM acetate buffer at pH 5.5 for the 6-O-sulfatase and pH 6.0 for the N-sulfamidase at 37° C. Reactions were quenched by diluting the samples 1:4 in MeOH. The carrier solvent was H2O:MeOH (1:4, v/v). In these experiments, 4-MU-GlcNS was added prior to injection as an internal standard to monitor ionization efficiency and mass accuracy within the source and trap.

[2] = Desulfation of unsaturated heparin disaccharides by capillary electrophoresis; type: biochemical; details: ΔU±2SHNAc,6S, ΔU±2SHNS,6S (6-O-sulfatase); ΔU±2SHNS+6S (N-sulfamidase)
Procedure: The ability of both enzymes to desulfate unsaturated heparin and chondroitin disaccharides was assessed essentially as described for capillary electrophoresis based compositional analyses of enzymatically generated glycosaminoglycan di- and tetra-saccharides (Venkataraman et al., 1999 Science 286, 537-542). For these studies, the following disaccharide substrates were tested: ΔUGlcNAc,6S; ΔU2SGlcNAc,6S; ΔUGlcNS; ΔUGlcNS,6S; ΔU2SGlcNS,6S; and ΔUGalNac,6S. Reactions included 500 μM substrate, 10 μM enzyme, 50 mM sodium acetate, pH 6.5 and +/−2 mM CaCl2 in a 20 μL reaction volume.

[3] = Pilot capillary electrophoresis desulfation assay with monosulfated 4-MU gluco- and galactopyranosides; type: biochemical
Procedure: Initial assessment of substrate specificity and pH optima was made using a capillary electrophoresis-based assay for the detection of desulfated products. Preliminary enzyme activity was measured against the following series of fluorescently derivatized, monosulfated gluco and galactopyranosides: 4-MU-GlcNAc,6S, 4-MU-GlcNS, 4-MU-GalNAc,6S and 4-MU-Gal6S. Standard reactions included 1 mM substrate, 1-10 μM enzyme, 50 mM sodium acetate, pH 5.5-6.5 and 5 mM CaCl2 in a 20 μL reaction volume. For pilot experiments, exhaustive reactions involved overnight incubations at 30° C. Enzyme was inactivated by heat denaturation at 95° C. for 10 minutes, followed by a 10-fold dilution into water. Reaction products were resolved by capillary electrophoresis using a 25 cm long, 75 μm (i.d.) fused silica capillary (Agilent Technologies, Palo Alto, Calif.). Electrophoresis was carried out under negative polarity by applying a voltage of −15 kV (˜1.2 W) for 10 minutes. Substrate desulfation was measured as a percentage of substrate depletion relative to a minus enzyme control as monitored by the loss of UV absorbance at 315 nm detected at approximately 4 minutes. A standard capillary electrophoresis buffer included 50 mM Tris and 10 μM dextran sulfate (average MW of 10,000 Da) adjusted to pH 2.0 with phosphoric acid. At this pH, saccharide migration occurred on the basis of charge without the influence of electro-osmotic flow.

[4] = Storage stability of purified enzymes; type: physicochemical; details: 4° C., ~10 mg/mL
Procedure: Final protein concentrations were determined colorimetrically using the Bradford Assay (Bio-Rad, Hercules, Calif.) and confirmed by UV absorption spectroscopy using theoretical molar extinction coefficients (ε280) of 94,730 M^−1 (61,572 Da) and 86,340 (53,193 Da) for the NH2-terminally truncated ORF B (6-O-sulfatase) and ORF C(N-sulfamidase), respectively. These values were calculated for thrombin-cleaved proteins lacking a 6×His purification tag. Enzymes were stored at 4° C. at a concentration of ˜10 mg/mL.

[5] = Compositional analyses of sulfatase treated heparin; type: biochemical; details: 8 hours preincubation, then heparinase I and III
Procedure: 20 μg heparin were preincubated with 10 μM 6-O-sulfatase or N-sulfamidase for 8 hours at 30° C. in a 20 μL reaction which included 25 mM sodium acetate, pH 7.0 and 2 mM calcium acetate, pH 7.0. Following this preincubation, enzymes were inactivated by heat denaturation at 95° C. for 10 minutes and heparin exhaustively digested overnight at 37° C. by the addition of 2 μL of a concentrated enzyme cocktail containing heparinase I and III. Subsequent CE-based compositional analyses of heparinase-derived disaccharides were completed as described (Venkataraman et al., 1999 Science 286, 537-542).

[6] = Sequential degradation of heparin oligosaccharide by exo-enzymes, MALDI-MS; type: biochemical; details: after 2-O-sulfatase and Δ4,5 glycuronidase
Procedure: The purified pentasulfated tetrasaccharide ΔU2SHNS,6SIHNS,6S was provided by Dr. I. Capila (Momenta Pharmaceuticals, Cambridge, Mass.). Enzyme sequence was as follows: 2-O-sulfatase→Δ4,5 glycuronidase→6-O-sulfatase→N-sulfamidase. After each step, the enzyme was heat inactivated and 20 μL aliquots removed prior to the addition of the next enzyme in the sequence. Initial reaction conditions included 20 mM Tris, pH 7.2 and 60 nanomoles of tetrasaccharide in a 120 μL reaction volume. All enzyme reactions were carried out at 30° C. Enzyme specific conditions included the following: 1) 2-O-sulfatase, 1 μM enzyme, 6 hours; 2) Δ4,5 glycuronidase, 1 μM enzyme, 6 hours; 3) 6-O-sulfatase, 5 μM enzyme, 5 mM CaCl2, 12-15 hours; 4) N-sulfamidase, same conditions as for 6-O-sulfatase. Molecular masses of enzyme products were determined by MALDI mass spectrometry using established methods (Rhomberg et al., 1998, Proc Natl Acad Sci USA 95, 12232-12237).

Row | Molecule | effect of the presence of a 3-O-sulfate [1] | activity at the 2-amino position when a second sulfate at the 6-O position is present ([1]; substrate HNS,6S) | desulfation of unsaturated heparin disaccharides [2] | substrate specificity among four monosulfated 4-MU substrates [3] | retention of enzyme activity on storage [4] | effect of sulfatase pretreatment of unfractionated heparin on heparinase-derived cleavage products [5] | desulfation of the trisaccharides at the non-reducing end [6] | requirement at the 2-amino position of glucosamine [1] | comparative kinetic analysis GlcNAc,6S vs. GlcNS,6S ([1]; time course) | activity on the two 6-O-sulfated galactose sugars ([3]; 4-MU-Gal6S and 4-MU-GalNAc,6S)
1 | Flavobacterium heparinum N-sulfamidase (ORF C), recombinant, NH2-terminal truncation lacking signal sequence, SEQ ID NO: 4 (Pedobacter heparinus DSM 2366) (protein, E. coli BL21(DE3), N-terminal 6xHis removed by thrombin) SCTSPEKKTDRPNILMIMSDNQSWNHVGSYGDQTVRTPNMDRIAKEGVRFTNAFCSSPSCTPARAGMLTGQDIWRLEDGGNLWGVLPVKYKVYPDLLEEAGYAIGFQGKGWGPGSFEANKRPRNPAGNEFKSFGAFLKDKKEGPWCYWISSHEPHRPYVEGSGEKAGIDPNKVKVPAYLPDHISIRKDIADYYAAVETFDRELGEALDQLKASGELDNTVIVVCSDNGWQMPRGLANLYDFGTHVPLIISWPGKFKQDVVADNLVTLNDLAPTFLQLGKVPVPADMTGKSLLPIVEAGKKDEKPRDYVVLGRERHAFVRRHGLGYPGRAIRTKDYLYIKNYEPNRWPAGDPPFYGDIDPYMFNWPGETKYYLIEHKDDPKVKSFFELGMGKRPAEELFDINKDPDELHNLAALPEYQKIKQELVAKLRNYLVATKDPRETNGNIQIWDTAAYFSEIDKTPKPSKEMQKRFKLDSSYNYLK | completely inhibited | absolutely abolished | None of the unsaturated disaccharides were desulfated | could only hydrolyze the glucosamine sulfated at the 2-amino position | Full enzyme activity was retained for several months | no effect on the compositional profile | not able to do so |  |  | 
2 | Flavobacterium heparinum 6-O-sulfatase (ORF B), recombinant, NH2-terminal truncation lacking signal sequence, SEQ ID NO: 2 (Pedobacter heparinus DSM 2366) (protein, E. coli BL21(DE3), N-terminal 6xHis removed by thrombin) TLMSCQQPKPAESAKRPNIVFIMTDDHTIQAISAYGSKLVKTPNLDRIANEGMLFNNCFVTNAVCGPSRATILTGKYSHLNGLTDNSKVFDSTQVIYPQLLKKAGYQTAMIGKWHLGSTPMGFDYYSILPNQGQYYQPEFIENGHLVKEKGYVTDLITDKAIGFLEKRDHDKPFLMIYQHKAPHRNWLPAPRHLGMFDDTVFPEPANLLDDFKGRGRAAKEQLMNISTDMWPAWDLKMLSTAQLDSMAKLPVSPKFKDAKGDDYQQANDPSLDKARFFEVYNRMTDAEKVQWRKVYDKRVAEFKRLNPKGADLVRWKYQQYMRDYLACVVSVDENVGRLMDYLKKIGELDNTIIVYTSDQGFYLGEHGYFDKRFMYDESFRTPLMVRYPPSVKAGSVSNAFAMNLDFAPTLLDYAGVKIPADMQGLSLRPVLDNAGKSPENWRKAVYYHYYEFPSWHMVKRHYGIRTERYKLIHFYNDIDEWELYDMQKDPHEMQNLYNDKAYEPIIKDLKVQMKKLQVQYKDTNPTEAL | completely inhibited |  | None of the unsaturated disaccharides were desulfated | specific for the 6-O-sulfated glucosamine | Full enzyme activity was retained for several months | no effect on the compositional profile | able to singularly desulfate both trisaccharides | required a substituted amine (acetate or sulfate) at the 2-amino position | only a modest preference of the enzyme for the monosulfated substrate | did not act upon
